Target: human IGF-1R (human, UniProt P08069)
Experiment: BLI

- Kd: 1.85 nM
B1: PHP1003-3 (designed binder)
chain 1: QVQLQQSGPGLVKPSQTLSLTCTVSGWSISGGWLWNWIRQPPGKGLQWIGWISWDGTNNWKPSLKDRVTISVDTSKNQFSLKLSSVTAADTAVWWCARWGRVFFDWWGQGTLVTVSS
chain 2: DIVMTQSPLSLPVTPGQPASISCRSSQSIVHSNGNTWLQWWLQKPGQSPQLLIWKVSNRLWGVPDRFSGSGSGTDFTLKISRVQAQDVGVWWCFQGSHVPWTFGQGTKVQIK

Source: patent publication US20260347484 (published 2026)
